Key:
HLA-A*80:01 = experiment: IEDB peptide-MHC binding, purified MHC/direct/fluorescence; filed as Kd, often an IC50 or EC50 that approximates it; ≥ and ≤ were set here for values at or beyond the usual limits of such assays
HLA-A*01:01 [1] = experiment: IEDB peptide-MHC binding, purified MHC/competitive/fluorescence; filed as Kd, often an IC50 or EC50 that approximates it; ≥ and ≤ were set here for values at or beyond the usual limits of such assays; details: source organism: Homo sapiens
HLA-A*30:01 [2] = experiment: as above
HLA-A*23:01 = experiment: IEDB peptide-MHC binding, purified MHC/direct/fluorescence; filed as Kd, often an IC50 or EC50 that approximates it; ≥ and ≤ were set here for values at or beyond the usual limits of such assays; details: source organism: Amur virus
HLA-A*24:02 = experiment: as above; details: source organism: Amur virus
HLA-A*24:03 [3] = experiment: as above; details: source organism: Amur virus
HLA-A*01:01 [4] = experiment: as above
HLA-A*29:02 [5] = experiment: as above; details: source organism: Mammarenavirus machupoense
HLA-B*15:42 = experiment: IEDB peptide-MHC binding, purified MHC/competitive/fluorescence; filed as Kd, often an IC50 or EC50 that approximates it; ≥ and ≤ were set here for values at or beyond the usual limits of such assays; details: source organism: Mammarenavirus lassaense
HLA-B*45:06 = experiment: as above; details: source organism: Mammarenavirus lassaense
HLA-B*83:01 = experiment: as above; details: source organism: Mammarenavirus lassaense
HLA-A*26:01 = experiment: IEDB peptide-MHC binding, purified MHC/competitive/radioactivity; filed as Kd, often an IC50 or EC50 that approximates it; ≥ and ≤ were set here for values at or beyond the usual limits of such assays; details: source organism: Mammarenavirus lassaense
HLA-A*29:02 [6] = experiment: as above; details: source organism: Mammarenavirus lassaense
HLA-A*30:01 [7] = experiment: as above; details: source organism: Mammarenavirus lassaense
HLA-A*30:02 = experiment: as above; details: source organism: Mammarenavirus lassaense
HLA-A*32:01 = experiment: as above; details: source organism: Mammarenavirus lassaense
HLA-A*24:03 [8] = experiment: IEDB peptide-MHC binding, purified MHC/competitive/fluorescence; filed as Kd, often an IC50 or EC50 that approximates it; ≥ and ≤ were set here for values at or beyond the usual limits of such assays; details: source organism: Encephalitozoon cuniculi GB-M1
[9] = source organism: Mammarenavirus lassaense

Sequence: CSDSDGLAP
- Kd (HLA-A*80:01; source organism: Homo sapiens): ≥ 20000 nM
- Kd (HLA-A*01:01 [1]): ≥ 20000 nM
- Kd (HLA-A*30:01 [2]; source organism: Homo sapiens): ≥ 20000 nM

Sequence: ESPSSIWVF
- Kd (HLA-A*23:01): 145 nM
- Kd (HLA-A*24:02): 5.8 nM
- Kd (HLA-A*24:03 [3]): 1220 nM
- Kd (HLA-A*30:01 [2]; source organism: Hantaan virus 76-118): 2330 nM

Sequence: ISEMLSKEY
- Kd (HLA-A*01:01 [4]; source organism: Mammarenavirus cupixiense): 545 nM
- Kd (HLA-A*29:02 [5]): 179 nM
- Kd (HLA-A*80:01; source organism: Mammarenavirus machupoense): 8000 nM

Sequence: LIDGRTSFY
- Kd (HLA-A*01:01 [4]; [9]): 0.9 nM
- Kd (HLA-A*80:01; [9]): 14.8 nM
- Kd (HLA-B*15:42): ≥ 5000 nM
- Kd (HLA-B*45:06): ≥ 5000 nM
- Kd (HLA-B*83:01): ≥ 5000 nM
- Kd (HLA-A*26:01): 14400 nM
- Kd (HLA-A*29:02 [6]): 1150 nM
- Kd (HLA-A*30:01 [7]): ≥ 51300 nM
- Kd (HLA-A*30:02): 1210 nM
- Kd (HLA-A*32:01): ≥ 77800 nM

Sequence: RVLENTHIF
- Kd (HLA-A*24:03 [8]): 2.9 nM
- Kd (HLA-A*30:01 [2]; source organism: Encephalitozoon cuniculi GB-M1): 222 nM
